Measurements as given in article PMC11565788 (bioRxiv, 2024).

B1: AAGAB psGD (residues 2-177), tagless, coexpressed and co-purified with AP1σ3-His6 (domain or fragment, human, UniProt Q6PD74 2-177, looked up)
chain: AAGVPCALVTSCSSVFSGDQLVQHILGTEDLIVEVTSNDAVRFYPWTIDNKYYSADINLCVVPNKFLVTAEIAESVQAFVVYFDSTQKSGLDSVSSWLPLAKAWLPEVMILVCDRVSEDGINRQKAQEWCIKHGFELVELSPEELPEEDDDFPESTGVKRIVQALNANVWSNVVMK
B2: AP1σ3-His6 (full-length human AP1S3 with C-terminal His6 tag) (natural protein, UniProt Q96PC3-1 1-154, looked up)
chain: MIHFILLFSRQGKLRLQKWYITLPDKERKKITREIVQIILSRGHRTSSFVDWKELKLVYKRYASLYFCCAIENQDNELLTLEIVHRYVELLDKYFGNVCELDIIFNFEKAYFILDEFIIGGEIQETSKKIAVKAIEDSDMLQEVSTVSQTMGER

Key:
[1] = biological target: B2; experiment: SEC
[2] = biological target: B1; experiment: crystal structure

Binder | stoichiometry N [1] | binding result [2]
B1 | 1 | 
B2 |  | binds
